Values of other authors in publication PMC7337057.

Legend:
Glu118 = Glu118 (UniProt position 118, WFVGREQERRG); test: NMR (solid-state); conditions: not stated for this study (around 0 °C is stated for related SSNMR work from the same laboratory); 0.2 μM K+; K+ titrated at constant pH and ionic strength (value not stated); low ambient K+ (0.2 μM): K+-apo, collapsed selectivity filter, pH gate favoured open
Glu120 = Glu120 (UniProt position 120, VGREQERRGHF); test: NMR (solid-state); conditions: not stated for this study (around 0 °C is stated for related SSNMR work from the same laboratory); 0.2 μM K+; K+ titrated at constant pH and ionic strength (value not stated); low ambient K+ (0.2 μM): K+-apo, collapsed selectivity filter, pH gate favoured open

In the case of “KcsA potassium channel (pH-gated K+ channel) (Streptomyces lividans)”, the pKa (Glu118) is given as “above 7.5” and the pKa (Glu120) is given as “above 7.5”.
